# Data taken from article PMC4452782.
# Assays:
# [1] = biological target: GEC1/GABARAPL1 (GL1) (human (endogenous in MDA-MB-436 and MCF-7)) (UniProt Q9H0R8); assay: proximity ligation; P-LISA (Duolink In Situ Detection Reagents Red) on MDA-MB-436 cells fixed with 4% paraformaldehyde and permeabilised with cold methanol; endogenous proteins; mouse anti-SQSTM1 or anti-NIX with rabbit anti-LC3B or anti-GL1; dots per cell counted with BlobFinder; untreated cells, also after Rapa (10 uM, 5 h), Rot (50 uM, 24 h) or CCCP (100 uM, 24 h)
# Chain of GEC1/GABARAPL1 (GL1) (human (endogenous in MDA-MB-436 and MCF-7)) (Q9H0R8 whole entry): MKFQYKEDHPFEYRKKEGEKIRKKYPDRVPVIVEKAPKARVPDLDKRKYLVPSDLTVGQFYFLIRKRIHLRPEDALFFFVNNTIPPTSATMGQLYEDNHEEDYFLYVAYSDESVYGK
# [2] = biological target: LC3B (human (endogenous in MDA-MB-436)) (UniProt Q9GZQ8); assay: as above
# Chain of NIX/BNIP3L, O60238 1-219 (natural protein; other documents disagree on this pair) (O60238 whole entry): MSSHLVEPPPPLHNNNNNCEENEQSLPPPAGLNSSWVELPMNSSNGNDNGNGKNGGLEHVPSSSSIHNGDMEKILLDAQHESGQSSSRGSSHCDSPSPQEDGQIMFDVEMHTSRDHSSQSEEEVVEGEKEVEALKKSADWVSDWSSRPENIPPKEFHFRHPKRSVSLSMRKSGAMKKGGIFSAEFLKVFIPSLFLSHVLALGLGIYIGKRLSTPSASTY
substance,measurement,setting,value
"NIX/BNIP3L, O60238 1-219 (natural protein; other documents disagree on this pair)",P-LISA dots per cell,[1],11.6 dots/cell
same,P-LISA dots per cell,[2],18.9 dots/cell
